Reference: PMC5880400, “FIN219/JAR1 and cryptochrome1 antagonize each other to modulate photomorphogenesis under blue light in Arabidopsis” (PLoS Genetics, 2018)

Biological target: T1, CBP-CRY1 (cryptochrome1 full-length, recombinant) (Arabidopsis thaliana, UniProt Q43125 1-681)
T1 construct: cryptochrome1 (CRY1), Arabidopsis thaliana, full-length; also called CRY1/pCal-n; CRY1 full-length; source: E. coli BL21 (DE3) codon plus, purified (electroelution), acetone-precipitated and resuspended in PBS
Assay: pull-down; 5 ug purified recombinant protein mixed in 500 ul interaction buffer (50 mM Tris-HCl pH 7.5, 10 mM MgCl2, 100 mM NaCl, 1 mM PMSF, 0.04% NP-40), 4°C 1 h; GST fusions held on GSH sepharose; blot probed with antibodies against the CBP-tag
Conditions: both partners purified

T1 sequence (Q43125 whole entry): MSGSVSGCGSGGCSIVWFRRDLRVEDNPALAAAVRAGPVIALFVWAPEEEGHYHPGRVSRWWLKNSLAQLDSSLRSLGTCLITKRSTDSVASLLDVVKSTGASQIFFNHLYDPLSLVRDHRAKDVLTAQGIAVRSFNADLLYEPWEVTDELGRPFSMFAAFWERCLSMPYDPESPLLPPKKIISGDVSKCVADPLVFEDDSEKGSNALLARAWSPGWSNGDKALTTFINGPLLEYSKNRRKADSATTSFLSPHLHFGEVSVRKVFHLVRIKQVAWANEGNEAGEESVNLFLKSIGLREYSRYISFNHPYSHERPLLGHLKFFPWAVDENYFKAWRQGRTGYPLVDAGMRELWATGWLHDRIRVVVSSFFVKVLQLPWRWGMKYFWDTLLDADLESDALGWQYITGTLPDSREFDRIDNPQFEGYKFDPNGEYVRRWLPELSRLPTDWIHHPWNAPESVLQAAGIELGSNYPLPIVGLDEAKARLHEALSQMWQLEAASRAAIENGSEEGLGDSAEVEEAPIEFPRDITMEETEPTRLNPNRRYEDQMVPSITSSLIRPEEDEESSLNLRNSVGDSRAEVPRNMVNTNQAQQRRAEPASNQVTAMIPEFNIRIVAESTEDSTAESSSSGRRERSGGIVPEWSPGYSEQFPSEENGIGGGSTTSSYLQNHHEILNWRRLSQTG

binding result: binds
B1: GST-FIN219 (FIN219/JAR1 full-length, recombinant) (natural protein, Arabidopsis thaliana, UniProt Q9SKE2 1-575, looked up)
chain: MLEKVETFDMNRVIDEFDEMTRNAHQVQKQTLKEILLKNQSAIYLQNCGLNGNATDPEEAFKSMVPLVTDVELEPYIKRMVDGDTSPILTGHPVPAISLSSGTSQGRPKFIPFTDELMENTLQLFRTAFAFRNRDFPIDDNGKALQFIFSSKQYISTGGVPVGTATTNVYRNPNFKAGMKSITSPSCSPDEVIFSPDVHQALYCHLLSGILFRDQVQYVFAVFAHGLVHAFRTFEQVWEEIVTDIKDGVLSNRITVPSVRTAMSKLLTPNPELAETIRTKCMSLSNWYGLIPALFPNAKYVYGIMTGSMEPYVPKLRHYAGDLPLVSHDYGSSEGWIAANVTPRLSPEEATFAVIPNLGYFEFLPVSETGEGEEKPVGLTQVKIGEEYEVVITNYAGLYRYRLGDVVKVIGFYNNTPQLKFICRRNLILSINIDKNTERDLQLSVESAAKRLSEEKIEVIDFSSYIDVSTDPGHYAIFWEISGETNEDVLQDCCNCLDRAFIDAGYVSSRKCKTIGALELRVVAKGTFRKIQEHFLGLGSSAGQFKMPRCVKPSNAKVLQILCENVVSSYFSTAF
notes: FIN219/JAR1, Arabidopsis thaliana, full-length; also called GST-FIN219 full-length; FIN219FL/pGEX-4T-1; source: E. coli BL21 (DE3) codon plus, purified (GSH sepharose), acetone-precipitated and resuspended in PBS
